Target: PitA (Haloferax volcanii) (Haloferax volcanii (endogenous in strain H26))
Experiment: SEC; Sephacryl S-300 gel filtration of purified PitA against standard proteins (thyroglobulin, ferritin, KatG, BSA, cytochrome c554, cytochrome c)

- stoichiometry N (molecules of the subunit): > 10
Substance: PitA (Haloferax volcanii) (enzyme)

Reference: publication PMC5746218
